We go through 2 molecules from patent publication US20240343803A1 (SHANDONG SIMCERE BIOPHARMACEUTICAL, published 2024).

By EC50 (read off the curve) is commonly meant the concentration at which the effect is half-maximal. A high value points to a need for much substance. In general, EC50 refers to the concentration needed to bring the measured effect to its halfway point.

Assay [1] concerns the target T1, Fusion protein of extracellular domain of human TIGIT and His-tag (human TIGIT ECD-his) (human).
T1 chain: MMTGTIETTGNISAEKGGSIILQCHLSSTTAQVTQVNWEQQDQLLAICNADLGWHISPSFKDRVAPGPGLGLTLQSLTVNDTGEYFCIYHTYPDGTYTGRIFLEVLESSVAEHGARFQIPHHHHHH
As to the kind of experiment: BIAcore; KD ratio to TIGIT-CHI-070. (In general: SPR reads the build-up and loss of mass on a sensor chip optically.)

Assay [2] deals with T2, human TIGIT ECD-mFc (fusion protein of extracellular domain of human TIGIT and mouse IgG2a Fc fragment) (human).
T2 chain: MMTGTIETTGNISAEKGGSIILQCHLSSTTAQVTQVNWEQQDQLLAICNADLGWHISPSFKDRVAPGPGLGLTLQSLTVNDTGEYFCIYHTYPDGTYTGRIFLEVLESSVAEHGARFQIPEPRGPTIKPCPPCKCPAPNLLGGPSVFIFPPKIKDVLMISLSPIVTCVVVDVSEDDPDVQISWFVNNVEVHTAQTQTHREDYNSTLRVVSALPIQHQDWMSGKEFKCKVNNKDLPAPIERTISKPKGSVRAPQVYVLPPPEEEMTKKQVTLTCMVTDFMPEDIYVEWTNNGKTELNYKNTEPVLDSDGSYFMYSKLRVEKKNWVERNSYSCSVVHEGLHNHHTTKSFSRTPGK
The experiment in a line: competition cell ELISA; blocked: TIGIT ECD-mFc binding to CHO-K1 CD155 cells. On the procedure:
After discarding the culture supernatant, the cells were fixed with a cell fixation solution (Beyotime, P0098), 50 μL/well, at room temperature for 1 hour. After washing once with 0.05% Tween 20-PBS on the Microplate Washer, the plate was added with 5% skim milk powder-PBS, 250 μL/well, and incubated at 37° C. for 2-4 hours. The plate was then washed 3 times with 0.05% Tween 20-PBS on the Microplate Washer. The sample were mixed with human TIGIT ECD-mFc (working concentration: 100 ng/mL) and incubated for 0.5 hour. The mixed solution of antigen and antibody was added to the cell plate (50 μL/well). The cells were incubated with the mixture at 37° C. for 1.5-2 hours and then washed with 0.05% Tween 20-PBS for 3 times on the Microplate Washer. […] After washing 3 times with 0.05% Tween 20-PBS on the Microplate Washer, the plate was added with TMB chromogenic solution (KPL, 52-00-03), 50 μL/well, and incubated at 37° C. for 10 minutes. 1M HCL, 50 µL/well, was then added into the plate to terminate the reaction, and the OD450 nm was read by a microplate reader (Biotek, Powerwave HT).
(ELISA stands for enzyme-linked immunosorbent assay.)

Assay [3] concerns the target T3, full-length human TIGIT on CHO-K1 cells (CHO-K1 human TIGIT) (human, UniProt Q495A1 22-244).
T3 construct: NCBI XP_024309156.1; entry includes the signal peptide; also called high expression strain 1D2; medium expression strain 2D10
T3 sequence: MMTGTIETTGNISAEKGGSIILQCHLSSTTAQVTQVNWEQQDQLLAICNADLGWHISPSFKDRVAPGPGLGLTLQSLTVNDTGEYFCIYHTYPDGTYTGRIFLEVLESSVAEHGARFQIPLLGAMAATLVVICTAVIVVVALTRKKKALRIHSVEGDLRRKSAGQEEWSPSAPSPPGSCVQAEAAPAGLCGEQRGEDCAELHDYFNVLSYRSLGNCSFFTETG
As to the kind of experiment: FACS, CHO-K1 human TIGIT low expression strain. How it is done: (§1) The collected cells were washed once with PBS (Hyclone, Cat NO. SH30256), resuspended to 2×10⁵/50 μL with 1% BSA-PBS. The antibodies were diluted to 80 nM with 1% BSA-PBS (diluted by 3-fold serial dilution for 12 concentration points). The 50 μL cells were then mixed with 50 μL diluted antibodies, and then incubated at 4° C. for 60 minutes. […] After washing twice with PBS, the cell samples were resuspended with 1% BSA-PBS, 100 μL/well and then analyzed by flow cytometry (BD, Canto II).
For orientation: A flow cytometer gives signals particle by particle.

The target in assay [4] is T3, full-length human TIGIT on CHO-K1 cells …. The experiment in a line: FACS, high expression strain. On the procedure:
as §1, with “CAT #SH30256),” for “Cat NO. SH30256),”, “II). […] [0298] (c) The effect of anti-TIGIT chimeric antibodies blocking the interaction between Bio-CD155-His and CHO-K1 human TIGIT high expression cell strains detected by FACS” for “II).”

Assay [5] shares this target. The experiment in a line: competition FACS; blocked: Bio-CD155-His binding to CHO-K1 human TIGIT cells. On the procedure:
The collected cells were washed once with PBS (Hyclone, SH30256), resuspended to 2×10⁵/40 μL with 1% BSA-PBS. The antibodies were diluted to 210 nM with 1% BSA-PBS (diluted by 3-fold serial dilution for 12 concentration points). […] The 40 μL cells were then mixed with 40 μL diluted antibodies and 40 μL diluted Bio-CD155-His, and then incubated at 4° C. for 60 minutes. The cells were washed twice with PBS, resuspended with APC labeled streptavidin (dilution ratio 1:1700, Biolegend, 405243), 100 μL/well, and incubated at 4° C. for 40 minutes. The cell samples were washed twice with PBS, resuspended with 1% BSA-PBS (100 μL/well) and then analyzed by flow cytometry (BD, Canto II).

B1: TIGIT-070-H1L1 (antibody, V domains shown)
VH: EVQLVQSGAEVKKPGASVKVSCKASGYTFTNYYMHWVRQAPGQRLEWMGRIDPDSGGSKYNEKFKSRVTITVDKSASTAYMELSSLRSEDTAVYYCAREGHYGFYSDYWGQGTTVTVSS
VL: DIQMTQSPSSLSASVGDRVTITCRVSENIYSYLAWYQQKPGKSPKLLIYNAKTLAEGVPSRFSGSGSGTDFTLTISSLQPEDFATYYCQHHYGNPLTFGPGTKVDIK
notes: Humanized anti-TIGIT antibody
As to B1, in assay [1], the “Fold change vs chimeric antibodies (KD)” value came to 0.59 fold.

B2: RG6058-hIgG1 (antibody, V domains shown)
VH: EVQLQQSGPGLVKPSQTLSLTCAISGDSVSSNSAAWNWIRQSPSRGLEWLGKTYYRFKWYSDYAVSVKGRITINPDTSKNQFSLQLNSVTPEDTAVFYCTRESTTYDLLAGPFDYWGQGTLVTVSS
VL: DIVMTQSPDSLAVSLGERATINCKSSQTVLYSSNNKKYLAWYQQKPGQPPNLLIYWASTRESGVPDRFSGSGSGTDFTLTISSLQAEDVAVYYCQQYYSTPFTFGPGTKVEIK
notes: human IgG1 format by its name; also called Roche RG6058; control antibody RG6058
Turning to B2, the entries for the “IC50 (read off the curve)” value in assay [2] and in assay [5] were about 0.6 nM and about 0.3 nM, respectively. Moreover, the “EC50 (read off the curve)” value in assay [3] was about 0.4 nM. In assay [4], this molecule returned an EC50 of 0.673 nM.
